These results are taken from patent US7087405 (dated 2006).

One assay addresses T1, integrin alphavbeta5 (human, UniProt P06756).
T1 chain 1: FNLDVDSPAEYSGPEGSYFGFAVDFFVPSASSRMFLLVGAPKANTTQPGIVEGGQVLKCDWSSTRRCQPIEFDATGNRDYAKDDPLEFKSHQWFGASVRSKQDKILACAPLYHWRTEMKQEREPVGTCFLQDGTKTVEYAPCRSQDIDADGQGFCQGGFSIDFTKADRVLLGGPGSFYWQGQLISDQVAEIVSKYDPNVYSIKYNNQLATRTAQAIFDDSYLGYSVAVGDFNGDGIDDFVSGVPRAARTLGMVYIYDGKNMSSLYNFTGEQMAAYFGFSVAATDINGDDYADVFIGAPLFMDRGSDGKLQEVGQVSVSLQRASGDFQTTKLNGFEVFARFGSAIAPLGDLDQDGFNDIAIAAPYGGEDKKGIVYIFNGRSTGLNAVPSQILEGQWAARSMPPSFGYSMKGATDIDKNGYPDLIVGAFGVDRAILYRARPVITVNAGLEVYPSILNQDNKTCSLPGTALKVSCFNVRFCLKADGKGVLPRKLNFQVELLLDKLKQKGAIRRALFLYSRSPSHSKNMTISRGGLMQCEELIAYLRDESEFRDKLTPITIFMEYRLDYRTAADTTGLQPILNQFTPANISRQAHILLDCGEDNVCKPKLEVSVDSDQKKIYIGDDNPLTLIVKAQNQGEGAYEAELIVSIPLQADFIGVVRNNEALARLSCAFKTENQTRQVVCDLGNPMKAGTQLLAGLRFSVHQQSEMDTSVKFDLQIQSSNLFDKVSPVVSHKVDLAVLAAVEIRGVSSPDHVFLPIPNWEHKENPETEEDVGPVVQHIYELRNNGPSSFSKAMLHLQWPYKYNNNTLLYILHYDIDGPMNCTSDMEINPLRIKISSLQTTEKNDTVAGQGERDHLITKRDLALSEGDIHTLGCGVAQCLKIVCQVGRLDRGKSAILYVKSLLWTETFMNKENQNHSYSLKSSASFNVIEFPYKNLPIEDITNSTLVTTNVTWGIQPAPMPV
T1 chain 2: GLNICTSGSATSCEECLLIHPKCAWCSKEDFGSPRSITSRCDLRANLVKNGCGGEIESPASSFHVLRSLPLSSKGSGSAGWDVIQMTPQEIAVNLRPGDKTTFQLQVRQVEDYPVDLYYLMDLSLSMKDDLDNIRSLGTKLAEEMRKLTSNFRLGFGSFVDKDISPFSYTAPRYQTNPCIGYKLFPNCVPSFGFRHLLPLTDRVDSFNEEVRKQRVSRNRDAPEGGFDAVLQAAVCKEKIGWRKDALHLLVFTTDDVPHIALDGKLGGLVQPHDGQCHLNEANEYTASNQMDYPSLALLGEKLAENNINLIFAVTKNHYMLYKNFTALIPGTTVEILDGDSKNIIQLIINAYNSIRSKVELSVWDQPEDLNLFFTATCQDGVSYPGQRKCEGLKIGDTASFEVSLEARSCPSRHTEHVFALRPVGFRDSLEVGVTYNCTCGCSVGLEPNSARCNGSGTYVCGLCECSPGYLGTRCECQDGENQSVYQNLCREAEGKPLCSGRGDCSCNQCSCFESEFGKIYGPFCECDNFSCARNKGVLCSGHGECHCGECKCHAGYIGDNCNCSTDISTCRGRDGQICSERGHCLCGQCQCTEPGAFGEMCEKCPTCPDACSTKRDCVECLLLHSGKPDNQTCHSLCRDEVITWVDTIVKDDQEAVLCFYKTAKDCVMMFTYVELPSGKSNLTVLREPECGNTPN
As to the kind of experiment: SPR, receptor immobilized, bivalent.

Assay [1] concerns the target T2, integrin alphavbeta3 (human, UniProt P06756).
T2 chain 1: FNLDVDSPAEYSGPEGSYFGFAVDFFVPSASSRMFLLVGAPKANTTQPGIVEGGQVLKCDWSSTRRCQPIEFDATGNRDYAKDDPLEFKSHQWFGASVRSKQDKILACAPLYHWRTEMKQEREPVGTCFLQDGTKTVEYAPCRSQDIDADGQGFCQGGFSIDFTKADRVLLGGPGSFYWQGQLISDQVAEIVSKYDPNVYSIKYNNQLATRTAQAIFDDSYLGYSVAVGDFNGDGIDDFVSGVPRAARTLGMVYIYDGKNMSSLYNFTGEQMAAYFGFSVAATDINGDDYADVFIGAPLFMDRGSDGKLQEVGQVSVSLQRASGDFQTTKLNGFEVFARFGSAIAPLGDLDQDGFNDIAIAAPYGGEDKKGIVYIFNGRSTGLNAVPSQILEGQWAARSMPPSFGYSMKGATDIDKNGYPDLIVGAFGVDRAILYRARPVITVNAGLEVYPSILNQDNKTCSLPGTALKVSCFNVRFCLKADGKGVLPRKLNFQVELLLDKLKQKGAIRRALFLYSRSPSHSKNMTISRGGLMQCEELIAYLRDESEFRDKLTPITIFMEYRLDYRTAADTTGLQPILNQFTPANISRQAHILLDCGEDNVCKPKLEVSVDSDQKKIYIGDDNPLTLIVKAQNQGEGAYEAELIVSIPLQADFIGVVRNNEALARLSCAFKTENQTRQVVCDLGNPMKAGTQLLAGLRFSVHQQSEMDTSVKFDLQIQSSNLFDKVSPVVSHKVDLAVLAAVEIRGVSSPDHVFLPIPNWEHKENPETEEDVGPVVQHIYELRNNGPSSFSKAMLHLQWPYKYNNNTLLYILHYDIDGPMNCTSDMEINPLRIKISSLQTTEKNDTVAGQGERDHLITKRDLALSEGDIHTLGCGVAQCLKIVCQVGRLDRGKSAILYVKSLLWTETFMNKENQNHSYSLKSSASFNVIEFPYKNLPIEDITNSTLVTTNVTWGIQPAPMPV
T2 chain 2: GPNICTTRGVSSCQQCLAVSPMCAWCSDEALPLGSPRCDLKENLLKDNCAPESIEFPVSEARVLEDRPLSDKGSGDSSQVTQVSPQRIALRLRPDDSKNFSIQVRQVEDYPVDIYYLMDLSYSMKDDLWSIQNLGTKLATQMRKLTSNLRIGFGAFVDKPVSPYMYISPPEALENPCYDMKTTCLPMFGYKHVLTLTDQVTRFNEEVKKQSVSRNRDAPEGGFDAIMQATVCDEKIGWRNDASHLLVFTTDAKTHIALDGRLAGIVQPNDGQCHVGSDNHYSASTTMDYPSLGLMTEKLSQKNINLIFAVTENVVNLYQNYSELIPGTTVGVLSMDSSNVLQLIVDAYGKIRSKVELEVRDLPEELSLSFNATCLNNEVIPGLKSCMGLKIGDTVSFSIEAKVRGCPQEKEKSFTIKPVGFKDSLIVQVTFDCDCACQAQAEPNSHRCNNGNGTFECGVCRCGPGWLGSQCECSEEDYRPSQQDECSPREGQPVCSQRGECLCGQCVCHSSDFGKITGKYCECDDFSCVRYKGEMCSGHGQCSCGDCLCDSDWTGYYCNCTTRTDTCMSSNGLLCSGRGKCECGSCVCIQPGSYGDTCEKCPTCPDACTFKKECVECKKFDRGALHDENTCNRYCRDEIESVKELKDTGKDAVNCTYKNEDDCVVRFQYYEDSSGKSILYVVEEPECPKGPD
The assay is described as follows: SPR, receptor immobilized, bivalent.

Assay [2] addresses T2, integrin alphavbeta3. The assay is described as follows: SPR, mAb captured on Protein A.

B1: murine B9 (antibody, V domains shown)
VH: QVQLQQSGAELMKPGASVKISCKATGYTFSSYWIEWVKQRPGHGLEWIGEILPRSGNTNYNEKFKGKATFTAETSSNTAYMQLSSLTPEDSAVYYCSSRGVRGSMDYWGQGTSVTVSS
VL: DIQMTQTTSSLSASLGDRVTITCRSSQDISNFLNWYQQKPDGTVKLLIYYTSTLHSGVPSRFSGSGSGTDYSLTISNLEQEDIATYFCQQGNTLPWTFGGGTNLEIKR
B1: the values for the Kd with integrin alphavbeta5 and with integrin alphavbeta3 [1] were 0.11 nM and 0.29 nM, respectively.

B2: B9HL1G1 (antibody)
chain 1: QVQLVQSGAEVKKPGASVKVSCKASGYTFSSYWIEWVKQAPGQGLEWIGEILPRSGNTNYNEKFKGKATFTADTSTSTAYMELSSLRSEDTAVYYCSSRGVRGSMDYWGQGTLVTVSS
chain 2: DIQMTQSPSSLSASVGDRVTITCRSSQDISNFLNWYQQKPGKAPKLLIYYTSTLHSGVPSRFSGSGSGTDYTLTISSLQPEDFATYYCQQGNTASLDVRWRY
On to B2, for which the Kd with integrin alphavbeta3 [2] was 8.2 nM.

B3: B9HL2G1 (antibody, V domains shown)
VH: QVQLVQSGAEVKKPGASVKVSCKASGYTFSSYWIEWVKQAPGQGLEWIGEILPRSGNTNYNEKFKGKATFTADTSTSTAYMELSSLRSEDTAVYYCSSRGVRGSMDYWGQGTLVTVSS
VL: DIQMTQSPSSLSASVGDRVTITCRSSQDISNFLNWYQQKPGKAPKLLIYYTSTLHSGVPSRFSGSGSGTDYTFTISSLQPEDIATYYCQQGNTLPWTFGGGT
In the assay with integrin alphavbeta3 [2], B3 displayed a Kd of 7.1 nM.

B4: B9HL1G4 (antibody)
chain 1: QVQLVQSGAEVKKPGASVKVSCKASGYTFSSYWIEWVKQAPGQGLEWIGEILPRSGNTNYNEKFKGKATFTADTSTSTAYMELSSLRSEDTAVYYCSSRGVRGSMDYWGQGTLVTVSS
chain 2: DIQMTQSPSSLSASVGDRVTITCRSSQDISNFLNWYQQKPGKAPKLLIYYTSTLHSGVPSRFSGSGSGTDYTLTISSLQPEDFATYYCQQGNTASLDVRWRY
As for B4, the Kd with integrin alphavbeta3 [2] turned out to be 5.4 nM.

B5: B9HH1G1/HL3K (antibody, V domains shown)
VH: QVQLVQSGAEVKKPGASVKVSCKASGYTFSSYWIEWVKQAPGQGLEWIGEILPRSGNTNYNEKFKGKATFTADTSTSTAYMELSSLRSEDTAVYYCSSRGVRGSMDYWGQGTLVTVSS
VL: DIQMTQSPSSLSASVGDRVTITCRSSQDISNFLNWYQQKPGKAPKLLIYYTSTLHSGVPSRFSGSGSGTDYTLTISSLQPEDFATYYCQQGNTLPWTFGGGTNVE
On to B5, for which the Kd in the assay with integrin alphavbeta3 [2] amounted to 6.9 nM.
